Here are results for one molecule from patent US20150017171A1 (CHINA SYNTHETIC RUBBER, published 2015).

In assay [1] the target is T1, recombinant human PLVAP51-442 protein (extracellular domain, His tag removed by thrombin) (human, UniProt Q9BX97 51-442).
T1 construct: also called recombinant PLVAP protein; recombinant PLVAP
T1 sequence: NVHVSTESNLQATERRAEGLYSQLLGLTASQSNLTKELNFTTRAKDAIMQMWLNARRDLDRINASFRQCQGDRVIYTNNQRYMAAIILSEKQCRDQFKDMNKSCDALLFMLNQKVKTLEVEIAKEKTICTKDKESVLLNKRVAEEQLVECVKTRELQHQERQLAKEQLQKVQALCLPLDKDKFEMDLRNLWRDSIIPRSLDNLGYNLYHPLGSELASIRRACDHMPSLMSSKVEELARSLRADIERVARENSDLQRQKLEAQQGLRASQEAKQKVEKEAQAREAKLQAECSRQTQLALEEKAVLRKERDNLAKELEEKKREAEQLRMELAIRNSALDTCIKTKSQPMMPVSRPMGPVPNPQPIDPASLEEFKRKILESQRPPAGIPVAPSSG
As to the kind of experiment: Biacore T-100. Background: Surface plasmon resonance follows binding to a sensor surface in real time, without labels.

For assay [2], the target named is T1, recombinant human PLVAP51-442 protein …. Description: ANTQ300 quartz crystal microbalance.
In assay [3] the target is T2, peptide encompassing amino acids 378 to 404 of human PLVAP, expressed by an E. coli clone of the Novatope … (human).
T2 peptide: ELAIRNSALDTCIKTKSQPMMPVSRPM
Description: colony blot of Novatope fragment library. How it is done: PCR was performed using the following thermal cycle: 94° C. for 5 min, followed by 35 cycles of 94° C. for 30 s, 56° C. for 30 s and 72° C. for 60 s. DNA was purified with the Qiaquick PCR purification kit (Qiagen, Surrey, UK) and then used in the construction of a PLVAP Novatope library according to the manufacturer's instructions (Novagen, Merck Biosciences Ltd., Beeston, UK). Briefly, purified PCR product was digested with DNAse I in the presence of Mn²⁺ and fragments between 50-150 base pairs (bp) were gel purified using a gel extraction kit (Qiagen). The DNA fragments were end-filled using T4 DNA polymerase and Tth polymerase to add a single dA residue to each 3′ end and then ligated into the pScreen 1b(+)T-vector (Novagen), which is designed to express small inserts as a carboxy-terminal fusion to the T7 bacterial phage gene 10 capsid protein. The library was transformed into NovaBlue (DE3) cells and plated onto Luria-Bertani (LB) media plates containing carbenicillin (50 μg/ml) and tetracycline (12.5 μg/m). The resulting human PLVAP cDNA library was screened (approximately 10⁴ colonies for each antibody) using the method described in the Novatope manual: Colonies expressing PLVAP fragments were transferred to nitrocellulose filters by contact with the colony for 1 min. Bacterial colonies on the filters were lysed by incubating in a sealed chloroform vapor chamber for 15 min. […]

The target in assay [4] is T1, recombinant human PLVAP51-442 protein …. As to the kind of experiment: competition ELISA on coated recombinant PLVAP; competitor biotinylated murine KFCC-GY5. How it is done: The binding of KFCC-GY4 and KFCC-GY5 human antibody variants to recombinant PLVAP was assessed in a competition ELISA. Either a dilution series of variant or control antibody from 30 μg/m to 0.014 μg/m (final concentration) was premixed with a constant concentration of biotinylated murine KFCC-GY4 (0.3 μg/ml, final concentration) or a dilution series of variant or control antibody from 10 μg/m to 0.004 μg/ml (final concentration) was premixed with a constant concentration of biotinylated murine KFCC-GY5 (0.1 μg/ml, final concentration) before incubating for 1 hour at room temperature on a Nunc Immuno MaxiSorp 96 well flat bottom microtitre plate (Fisher Catalogue No. DIS-971-030J) precoated with 1 μg/m recombinant “protein P” diluted in PBS. The binding of the biotinylated mAb was determined by detection with streptavidin-HRP and TMB substrate. After stopping the reaction with 3M HCl, absorbance was measured at 450 nm on a Dynex Technologies MRX TC II plate reader and the binding curves of the test antibodies compared against the mouse reference standard.
Similarly, the four lead variants of IgG4-GY5 and murine KFCC-GY5 antibodies have very similar binding profiles (FIG. 49). All of the lead variants shown are within two-fold of the original murine monoclonal antibody.
In general terms: In an ELISA, binding on a coated surface is turned into a signal by an enzyme label.

Assay [5] addresses T3, His-tagged human PLVAP51-292 (human, UniProt Q9BX97 51-292).
T3 construct: also called N-terminal portion of the extracellular domain; not shown: His tag and vector residues of pET-15b
T3 sequence: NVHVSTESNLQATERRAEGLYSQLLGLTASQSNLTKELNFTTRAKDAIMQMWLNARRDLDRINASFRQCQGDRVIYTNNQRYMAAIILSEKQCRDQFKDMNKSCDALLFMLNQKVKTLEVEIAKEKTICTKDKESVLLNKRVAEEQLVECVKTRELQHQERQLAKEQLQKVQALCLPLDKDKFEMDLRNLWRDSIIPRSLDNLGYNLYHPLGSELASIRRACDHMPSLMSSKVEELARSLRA
As to the kind of experiment: immunoblot of total protein extract of E. coli expressing the His-tagged protein. The text has this:
(§1) Molecular weight protein standards are resolved in Lane M.
For orientation: Immunoblotting shows a protein as a band on a membrane.

For the next assay, the target named is T4, His-tagged human CEACAM6 (human, UniProt P40199 35-320, limits assumed).
T4 construct: also called human CEACAM6 protein unrelated to PLVAP (lane 4); not shown: His tag
T4 sequence (looked up): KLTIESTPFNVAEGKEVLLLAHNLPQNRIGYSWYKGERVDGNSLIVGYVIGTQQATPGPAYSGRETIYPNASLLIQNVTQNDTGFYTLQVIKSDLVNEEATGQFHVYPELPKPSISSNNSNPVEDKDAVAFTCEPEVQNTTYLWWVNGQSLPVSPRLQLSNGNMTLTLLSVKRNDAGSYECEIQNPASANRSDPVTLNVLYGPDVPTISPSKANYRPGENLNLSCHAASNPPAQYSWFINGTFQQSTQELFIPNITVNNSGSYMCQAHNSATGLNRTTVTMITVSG
The assay is described as above.
Text: as §1

Assay [6] addresses T1, recombinant human PLVAP51-442 protein …. As to the kind of experiment: competition ELISA on coated recombinant PLVAP; competitor biotinylated murine KFCC-GY5 at 0.1 µg/ml. As for the experimental part: The binding of chimeric KFCC-GY4 and KFCC-GY5 antibodies to recombinant PLVAP protein was assessed in a competition ELISA. Either a dilution series of chimeric or control antibody from 30 μg/ml to 0.014 μg/m (final concentration) was premixed with a constant concentration of biotinylated murine KFCC-GY4 (0.3 μg/ml, final concentration) or a dilution series of chimeric or control antibody from 10 μg/ml to 0.004 μg/m (final concentration) was premixed with a constant concentration of biotinylated murine KFCC-GY5 (0.1 μg/ml, final concentration) before incubating for 1 hour at room temperature on a Nunc Immuno MaxiSorp 96 well flat bottom microtitre plate (Fisher Catalogue No. DIS-971-030J) precoated with 1 μg/ml recombinant PLVAP protein diluted in PBS. The binding of the biotinylated mAb was determined by detection with streptavidin-HRP and TMB substrate.
Therefore, the correct variable region sequences for the parent murine monoclonal antibodies were identified and cloned.

For orientation: Kd means a measure of binding affinity in units of concentration. As a reminder, the koff is the first-order rate constant of dissociation. For orientation: kon means a measure of how fast the partners come together. The IC50 is the concentration at which inhibition is half-maximal.

B1: KFCC-GY5 monoclonal antibody (murine, hybridoma ATCC PTA-9964) (antibody, mouse IgG1, V domains shown)
VH: QVQLQQPGAELVRPGASVKLSCKASGYTFTSNYINWVKQRPGQGLEWIGNIYPSDGFTNYNQKFKDRATLTVDKSSSTAYMQLSSPTSEDSAVYYCTRNFDVWGAGTTVTVSS
VL: DVVMTQTPLSLPVSLGDQASISCRSSQSLVHSNGNTYLQWYLQKPGQSPKLLIYTVSNRFSGVPDRFSGSGSGPDFTLKISRVEAEDLGVYFCSQSTHVPFTFGSGTKLEIK
notes: also called GY5 mAB; KFCC-GY5 mAb
Regarding B1, the Kd in assay [1] came to 59.8 nM; in assay [2] it was 41 nM. Further, the koff in assay [1] is 0.000414 s⁻¹. Besides, in assay [1], the kon was found to be 6930 M⁻¹ s⁻¹. In addition, the binding result in assay [3] is reported as “binds”; in assay [5], “no binding”; in the assay with His-tagged human CEACAM6, “no binding”. The IC50 turned out to be 0.38 µg/mL in assay [4] and 0.49 µg/mL in assay [6]. Also, the “IC50 (ratio compared to GY5 mAb)” value in assay [4] stood at 1.
